The subject of data set [1] is endogenous AHAS genes (three homoeologous copies). Kind of data set: transient assay of ZFN-mediated NHEJ-directed AHAS editing in PEG-transfected SEC protoplasts. It counts as cell-based, Triticum aestivum. Conditions: SEC protoplast. From the text:
(§1) The first type of donor design was a linear, double stranded DNA molecule comprising 41-bp of sequence that shared no homology with the endogenous AHAS genes in wheat. Two donor DNA molecules were designed, each to target the three homoeologous copies of the AHAS gene. Both donor DNA molecules had protruding 5′ and 3′ ends to provide ligation overhangs to facilitate ZFN-mediated NHEJ-directed DNA repair. The two donor DNA molecules differed by the sequence at their protruding 3′ end. The first donor DNA molecule, pDAS000152 (SEQ ID NO:74 and SEQ ID NO:75), was designed to provide ligation overhangs that were compatible with those generated by cleavage of the endogenous AHAS genes by ZFNs 29732 and 29730 (encoded on plasmid pDAB109350) and to result in the insertion of the 41-bp donor molecule into the endogenous AHAS gene at the site of the double strand DNA break via NHEJ-directed DNA repair. The second donor DNA molecule pDAS000149 (SEQ ID NO: 76 and SEQ ID NO:77) was designed to provide ligation overhangs that were compatible with those generated by the dual cleavage of the endogenous AHAS genes by ZFNs 29732 and 29730 (encoded on plasmid pDAB109350) and ZFNs 30012 and 30018 (encoded on plasmid pDAB109360) and to result in the replacement of the endogenous AHAS sequence contained between the two double strand DNA breaks created by the ZFNs with the 41-bp donor molecule via NHEJ-directed DNA repair.
(§2) The second type of donor was a plasmid DNA vector containing 41-bp of sequence that shared no homology with the endogenous AHAS genes in wheat and that was flanked on either side by sequence that was recognized by the ZFN(s) used to create double strand DNA breaks in the endogenous AHAS genes. This donor design allowed in planta release of the unique 41-bp sequence from the plasmid DNA molecule by the same ZFN(s) used to cleave target sites in the endogenous AHAS genes, and simultaneous generation of protruding ends that were suitable for overhang ligation of the released 41-bp sequence into the endogenous AHAS genes via NHEJ-directed DNA repair. Two plasmid donor DNA molecules were designed, each to target the three homoeologous copies of the AHAS gene. The first plasmid donor molecule, pDAS000153 (SED ID NO:78 and SEQ ID NO:79) (FIG. 8), was designed to provide ligation overhangs on the released 41-bp DNA fragment that were compatible with those generated by cleavage of the endogenous AHAS genes by ZFNs 29732 and 29730 (encoded on plasmid pDAB109350). The second plasmid donor molecule, pDAS000150 (SEQ ID NO:80 and SEQ ID NO:81) (FIG. 9), was designed to provide ligation overhangs on the released 41-bp DNA fragment that were at one end compatible with those generated by ZFNs 29732 and 29730 (encoded on plasmid pDAB109350) and at the other end compatible with those generated by ZFNs 30012 and 30018 (encoded on plasmid pDAB109360). This design allowed the replacement of the endogenous AHAS sequence contained between the two double strand DNA breaks created by ZFNs 29732 and 29730 and ZFNs 30012 and 30018 with the 41-bp donor molecule sequence.
(§3) Seedlings of the donor wheat line were grown in an environment controlled growth room maintained at 18/16° C. (day/night) and a 16/8 hour (day/night) photoperiod with lighting provided at […]. Wheat spikes were collected at 12-14 days post-anthesis and were surface sterilized by soaking for 1 min in 70% (v/v) ethanol. The spikes were threshed and the immature seeds were sterilized for 15 min in 17% (v/v) bleach with gentle shaking, followed by rinsing at least three times with sterile distilled water. The embryos were aseptically isolated from the immature seeds under a dissecting microscope. The embryonic axis was removed using a sharp scalpel and discarded. The scutella were placed into a 9 cm PETRI™ dish containing 2-4 medium without TIMENTIN™, with the uncut scutellum oriented upwards. A total of 25 scutella were plated onto each 9 cm PETRI™ dish. […]

For data set [2] the test system is unchanged. Kind of data set: transient assay of ZFN-mediated NHEJ-directed AHAS editing in biolistically transfected scutella. It counts as cell-based, Triticum aestivum. The following applies: for Editing Frequency (ppm): NHEJ, scutella; for molecular evidence for ZFN-mediated NHEJ-directed gene editing: samples of SEC protoplasts and scutella, with pDAB109350 (pDAS000149, pDAS000150 also pDAB109360).
From the text: as §1, §2
as §3, with “osmotic MS (E3 maltose) medium,” for “2-4 medium without TIMENTIN™,”, “20” for “25”

Setting [3] is: wheat sub-genome A, ZFN 29732-2A-29730, ratio 5:1.
Setting [4] is: wheat sub-genome A, ZFN 29732-2A-29730, ratio 10:1.
Setting [5] is: wheat sub-genome A, ZFN 29732-2A-29730, ratio 20:1.
Setting [6] is: wheat sub-genome A, ZFN n/a (donor only), average of three biological replicates.
[7] abbreviates: wheat sub-genome B, ZFN 29732-2A-29730, ratio 5:1.
[8] abbreviates: wheat sub-genome B, ZFN 29732-2A-29730, ratio 10:1.
Where [9] appears, read: wheat sub-genome B, ZFN 29732-2A-29730, ratio 20:1.
Setting [10] is: wheat sub-genome B, ZFN n/a (donor only).
Where [11] appears, read: wheat sub-genome D, ZFN 29732-2A-29730, ratio 5:1.
Setting [12] is: wheat sub-genome D, ZFN 29732-2A-29730, ratio 10:1.
[13] abbreviates: wheat sub-genome D, ZFN 29732-2A-29730, ratio 20:1.
The mark [14] stands for this setting: wheat sub-genome D, ZFN n/a (donor only).

B1: pDAS000150: plasmid donor with 41-bp sequence flanked by sites for ZFNs 29732/29730 and 30012/30018; SEQ ID NO:80, 81 (nucleic acid)
chain 1: TGGATATCATAGTCCCGCATCAGGAGCACGTGCTGCCTATGATCCCAAGCGGTGGTGCTTTCAAGGACATGATCATGGGTTAGGTGCTGGTGGTCCGAAGGTCCACGCCGCCAACTACGGATGGCAGGACCTCGTACTGAAATTTCGACCTACAAGACCTACAAGTGTGACATGCGCAATCAGCATGATGCCCGCGT
chain 2: ACGCGGGCATCATGCTGATTGCGCATGTCACACTTGTAGGTCTTGTAGGTCGAAATTTCAGTACGAGGTCCTGCCATCCGTAGTTGGCGGCGTGGACCTTCGGACCACCAGCACCTAACCCATGATCATGTCCTTGAAAGCACCACCGCTTGGGATCATAGGCAGCACGTGCTCCTGATGCGGGACTATGATATCCA
modifications: pDAS000150
As for B1, the “Editing Frequency (ppm)” value in data set [1] (setting [3]), in data set [1] (setting [4]), in data set [1] (setting [5]), in data set [1] (setting [6]), in data set [1] (setting [7]) and in data set [1] (setting [8]) was 0 ppm throughout. Moreover, the “Editing Frequency (ppm)” value in data set [1] (setting [9]), in data set [1] (setting [10]), in data set [1] (setting [11]), in data set [1] (setting [12]), in data set [1] (setting [13]) and in data set [1] (setting [14]) was 0 ppm each time. Besides, the “Editing Frequency (ppm)” value in data set [2] (setting [3]) was 1 ppm; in data set [2] (setting [4]), 0 ppm; in data set [2] (setting [6]), 0 ppm; in data set [2] (setting [7]) it was 0 ppm; in data set [2] (setting [8]), 0 ppm; in data set [2] (setting [10]), 0 ppm. In addition, the “Editing Frequency (ppm)” value in data set [2] (setting [11]) is 4 ppm; in data set [2] (setting [12]), 0 ppm; in data set [2] (setting [14]) it was 0 ppm. Moreover, the “molecular evidence for ZFN-mediated NHEJ-directed gene editing” value in data set [2] is given as “Limited evidence”.

B2: pDAS000153: plasmid donor with 41-bp sequence flanked by ZFN 29732/29730 sites; SEQ ID NO:78, 79 (nucleic acid)
chain 1: TGGATATCATAGTCCCGCATCAGGAGCACGTGCTGCCTATGATCCCAAGCGGTGGTGCTTTCAAGGACATGATCATGGGTTAGGTGCTGGTGGTCCGAAGGTCCACGCCGCCAACTACGTGGATATCATAGTCCCGCATCAGGAGCACGTGCTGCCTATGATCCCAAGCGGTGGTGCTTTCAAGGACATGATCATGG
chain 2: CCATGATCATGTCCTTGAAAGCACCACCGCTTGGGATCATAGGCAGCACGTGCTCCTGATGCGGGACTATGATATCCACGTAGTTGGCGGCGTGGACCTTCGGACCACCAGCACCTAACCCATGATCATGTCCTTGAAAGCACCACCGCTTGGGATCATAGGCAGCACGTGCTCCTGATGCGGGACTATGATATCCA
modifications: pDAS000153
For the molecule B2, the “Editing Frequency (ppm)” value in data set [1] (setting [3]), in data set [1] (setting [4]), in data set [1] (setting [5]), in data set [1] (setting [6]), in data set [1] (setting [7]) and in data set [1] (setting [8]) was 0 ppm each time. The “Editing Frequency (ppm)” value in data set [1] (setting [9]), in data set [1] (setting [10]), in data set [1] (setting [11]), in data set [1] (setting [12]), in data set [1] (setting [13]) and in data set [1] (setting [14]) was 0 ppm in each case. Also, the “Editing Frequency (ppm)” value in data set [2] (setting [3]) came to 4 ppm; in data set [2] (setting [4]), 0 ppm; in data set [2] (setting [6]) it was 0 ppm; in data set [2] (setting [7]), 0 ppm; in data set [2] (setting [8]), 0 ppm; in data set [2] (setting [10]), 0 ppm. Moreover, the “Editing Frequency (ppm)” value in data set [2] (setting [11]), in data set [2] (setting [12]) and in data set [2] (setting [14]) was 0 ppm each time. For the same molecule, in data set [2], the “molecular evidence for ZFN-mediated NHEJ-directed gene editing” value is on record as “poor evidence”.
